B1: HDAC6 (parent)
chain: YVHHQALLDVKNIAHQNKFGEDMP
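Further: lentivirally expressed fusions sorted by FACS into six bins by GFP to DsRed ratio, PSI derived from sequencing read proportions per bin multiplied by bin number.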

In the data set the parent is B1. Nature of the data set: protein stability index of a GFP-peptide fusion (GPS, HEK-293T) (PSI 1-6); higher = more stable. To be noted: c terminus: a fixed tail appended.
Consider YVHHQALLDVKNITHQNKFGEDMP, for which the protein stability index is 1.82.
Turning to YVHHQALLDVKNIKHQNKFGEDMP, the protein stability index is 2.33.
In the case of YVHHQALLDVKNIMHQNKFGEDMP, the protein stability index was determined as 1.99.
With YVHHQALLDVKNIPHQNKFGEDMP, the protein stability index was determined as 2.42.
YVHHQALLDVKNICHQNKFGEDMP: the protein stability index is 3.38.
With YVHHQALLDVKNIQHQNKFGEDMP the figure was 2.21.
With YVHHQALLDVKNISHQNKFGEDMP the figure was 2.35; with YVHHQALLDVKNIIHQNKFGEDMP, 2.12; with YVHHQALLDVKNIWHQNKFGEDMP, 2.79.
Regarding YVHHQALLDVKNIVHQNKFGEDMP, the protein stability index was found to be 2.59.
Turning to YVHHQALLDVKNIHHQNKFGEDMP, the protein stability index was found to be 1.74.
As to YVHHQALLDVKNIGHQNKFGEDMP, the protein stability index is 1.76.
With YVHHQALLDVKNILHQNKFGEDMP the figure was 1.9; with YVHHQALLDVKNINHQNKFGEDMP, 2.26; with YVHHQALLDVKNIYHQNKFGEDMP, 1.74.
For the variant YVHHQALLDVKNIEHQNKFGEDMP, the protein stability index was determined as 2.3.
As to YVHHQALLDVKNIFHQNKFGEDMP, the protein stability index amounted to 1.52.
Turning to YVHHQALLDVKNIRHQNKFGEDMP, the protein stability index was 2.04.
YVHHQALLDVKNIDHQNKFGEDMP: the protein stability index was found to be 2.
The figure for YVHHQALLDVKNIAHQVKFGEDMP is 1.75.
Consider YVHHQALLDVKNIAHQSKFGEDMP, for which the protein stability index turned out to be 2.46.
YVHHQALLDVKNIAHQHKFGEDMP: the protein stability index came out at 1.72.
The figure for YVHHQALLDVKNIAHQAKFGEDMP is 2.83.
As to YVHHQALLDVKNIAHQQKFGEDMP, the protein stability index turned out to be 1.85.
Take YVHHQALLDVKNIAHQIKFGEDMP: the protein stability index is 1.48.
For YVHHQALLDVKNIAHQEKFGEDMP, the protein stability index was determined as 1.91.
On to YVHHQALLDVKNIAHQGKFGEDMP, for which the protein stability index stood at 1.58.
The figure for YVHHQALLDVKNIAHQDKFGEDMP is 1.9.
YVHHQALLDVKNIAHQYKFGEDMP: the protein stability index came to 1.57.
With YVHHQALLDVKNIAHQPKFGEDMP the figure was 2.12.
On to YVHHQALLDVKNIAHQMKFGEDMP, for which the protein stability index is 1.59.
YVHHQALLDVKNIAHQFKFGEDMP: the protein stability index is 1.38.
As for YVHHQALLDVKNIAHQWKFGEDMP, the protein stability index amounted to 1.19.
In the case of YVHHQALLDVKNIAHQKKFGEDMP, the protein stability index turned out to be 1.97.
Consider YVHHQALLDVKNIAHQLKFGEDMP, for which the protein stability index amounted to 1.68.
For the variant YVHHQALLDVKNIAHQRKFGEDMP, the protein stability index worked out at 1.89.
The figure for YVHHQALLDVKNIAHQCKFGEDMP is 1.87.
On to YVHHQALLDVKNIAHQTKFGEDMP, for which the protein stability index is 2.47.
Regarding YVHHQALLDVKGIAHQNKFGEDMP, the protein stability index turned out to be 2.71.
YVHHQALLDVKMIAHQNKFGEDMP: the protein stability index came out at 1.87.
Take YVHHQALLDVKAIAHQNKFGEDMP: the protein stability index was determined as 2.
Regarding YVHHQALLDVKEIAHQNKFGEDMP, the protein stability index came to 1.66.
The figure for YVHHQALLDVKSIAHQNKFGEDMP is 2.09; for YVHHQALLDVKIIAHQNKFGEDMP it is 2.4.
YVHHQALLDVKLIAHQNKFGEDMP: the protein stability index was found to be 1.93.
Consider YVHHQALLDVKKIAHQNKFGEDMP, for which the protein stability index is 2.18.
Consider YVHHQALLDVKTIAHQNKFGEDMP, for which the protein stability index was determined as 2.09.
With YVHHQALLDVKRIAHQNKFGEDMP, the protein stability index was found to be 2.36.
With YVHHQALLDVKFIAHQNKFGEDMP, the protein stability index was 2.65.
YVHHQALLDVKPIAHQNKFGEDMP: the protein stability index was 2.12.
Consider YVHHQALLDVKQIAHQNKFGEDMP, for which the protein stability index turned out to be 1.57.
For YVHHQALLDVKVIAHQNKFGEDMP, the protein stability index amounted to 1.54.
Take YVHHQALLDVKYIAHQNKFGEDMP: the protein stability index stood at 3.4.
As for YVHHQALLDVKCIAHQNKFGEDMP, the protein stability index was 1.42.
With YVHHQALLDVKHIAHQNKFGEDMP the figure was 1.72; with YVHHQALLDVKDIAHQNKFGEDMP, 1.67.
For YVHHQALLDVKWIAHQNKFGEDMP, the protein stability index turned out to be 2.64.
Take YVHHQALLQVKNIAHQNKFGEDMP: the protein stability index turned out to be 1.68.
Consider YVHHQALLCVKNIAHQNKFGEDMP, for which the protein stability index was determined as 2.38.
Consider YVHHQALLTVKNIAHQNKFGEDMP, for which the protein stability index stood at 1.95.
With YVHHQALLPVKNIAHQNKFGEDMP, the protein stability index was 4.3.
On to YVHHQALLHVKNIAHQNKFGEDMP, for which the protein stability index is 2.56.
As for YVHHQALLRVKNIAHQNKFGEDMP, the protein stability index stood at 1.65.
On to YVHHQALLKVKNIAHQNKFGEDMP, for which the protein stability index is 2.67.
The figure for YVHHQALLLVKNIAHQNKFGEDMP is 2.25; for YVHHQALLSVKNIAHQNKFGEDMP it is 2.25.
Regarding YVHHQALLWVKNIAHQNKFGEDMP, the protein stability index worked out at 3.58.
Take YVHHQALLMVKNIAHQNKFGEDMP: the protein stability index came to 1.76.
Take YVHHQALLIVKNIAHQNKFGEDMP: the protein stability index stood at 3.33.
Consider YVHHQALLVVKNIAHQNKFGEDMP, for which the protein stability index was found to be 1.25.
For YVHHQALLNVKNIAHQNKFGEDMP, the protein stability index was 2.66.
Turning to YVHHQALLAVKNIAHQNKFGEDMP, the protein stability index amounted to 3.21.
With YVHHQALLYVKNIAHQNKFGEDMP the figure was 2.35.
As to YVHHQALLGVKNIAHQNKFGEDMP, the protein stability index stood at 1.85.
For the variant YVHHQALLFVKNIAHQNKFGEDMP, the protein stability index was found to be 2.23.
Regarding YVHHQALLEVKNIAHQNKFGEDMP, the protein stability index turned out to be 2.4.
As to YVHHQALLDVQNIAHQNKFGEDMP, the protein stability index is 1.4.
Consider YVHHQALLDVTNIAHQNKFGEDMP, for which the protein stability index came to 2.25.
For YVHHQALLDVPNIAHQNKFGEDMP, the protein stability index worked out at 1.92.
With YVHHQALLDVINIAHQNKFGEDMP, the protein stability index worked out at 2.09.
Turning to YVHHQALLDVVNIAHQNKFGEDMP, the protein stability index turned out to be 1.41.
The figure for YVHHQALLDVRNIAHQNKFGEDMP is 2.08; for YVHHQALLDVENIAHQNKFGEDMP it is 2.24.
As for YVHHQALLDVGNIAHQNKFGEDMP, the protein stability index was 1.95.
Turning to YVHHQALLDVYNIAHQNKFGEDMP, the protein stability index is 2.77.
For YVHHQALLDVNNIAHQNKFGEDMP, the protein stability index stood at 1.98.
With YVHHQALLDVANIAHQNKFGEDMP the figure was 1.81; with YVHHQALLDVFNIAHQNKFGEDMP, 2.13.
For the variant YVHHQALLDVHNIAHQNKFGEDMP, the protein stability index stood at 2.21.
For the variant YVHHQALLDVWNIAHQNKFGEDMP, the protein stability index worked out at 3.04.
Turning to YVHHQALLDVDNIAHQNKFGEDMP, the protein stability index was found to be 2.18.
Turning to YVHHQALLDVMNIAHQNKFGEDMP, the protein stability index was found to be 1.72.
In the case of YVHHQALLDVLNIAHQNKFGEDMP, the protein stability index came out at 1.27.
Turning to YVHHQALLDVSNIAHQNKFGEDMP, the protein stability index was found to be 2.74.
